The values that follow come from patent US20210395319A1 (OLIGOMERIX, published 2021).

This series concerns the molecule itself. Nature of the series: self-association: overnight incubation at 37 °C in pH neutral buffer, SDS-PAGE on a 4-20% gradient gel. The procedure: Protein preparations of the N-terminal (21.5 kDa) and C-terminal (18.5 kDa) were incubated at 4 μM concentration in pH neutral buffer and incubated overnight at 37° C.

B1: N-terminal portion of tau protein (amino acids 1-184) (other, UniProt P10636-8 1-184, looked up)
chain: MAEPRQEFEVMEDHAGTYGLGDRKDQGGYTMHQDQEGDTDAGLKESPLQTPTEDGSEEPGSETSDAKSTPTAEDVTAPLVDEGAPGKQAAAQPHTEIPEGTTAEEAGIGDTPSLEDEAAGHVTQARMVSKSKDGTGSDDKKAKGADGKTKIATPRGAAPPGQKGQANATRIPAKTPPAPKTPPS
notes: range 1-184; Printed mass 21.5 kDa, charge approximately -7.2; also called tau fragment (21.5 KD) that encompasses the N-terminus; N-terminal (21.5 kDa)
For B1, the binding result is “no binding (tested: 4 µM)”.
